The source of these data is article doi:10.1101/2021.11.13.468331 (bioRxiv, 2021).

Read-outs that look alike come from different tables or passages of the source.

The labels stand for the following.
B2: full-length b5R released from the linker-cleaved SCD1-cyt b5-b5R fusion (enzyme, mouse)
chain: GMGAQLSTLSHVVLSPVWFIYSLFMKLFQRSTPAITLENPDIKYPLRLIDKEVISPDTRRFRFALPSPQHILGLPIGQHIYLSTRIDGNLVIRPYTPVSSDDDKGFVDLVVKVYFKDTHPKFPAGGKMSQYLENMKIGDTIEFRGPNGLLVYQGKGKFAIRADKKSNPVVRTVKSVGMIAGGTGITPMLQVIRAVLKDPNDHTVCYLLFANQSEKDILLRPELEELRNEHSARFKLWYTVDKAPDAWDYSQGFVNEEMIRDHLPTPGEEPLILMCGPPPMIQFACLPNLERVGHPKERCFTF

What all share (assay): SEC
For orientation: SEC sorts molecules by how far they enter the pores of the column.

Assay [1] deals with SCD1 released from the linker-cleaved SCD1-cyt b5 fusion (mouse).
Assay [2] deals with T1, SCD1 released from the linker-cleaved SCD1-cyt b5-b5R fusion (mouse, UniProt P13516 1-355).
T1 sequence: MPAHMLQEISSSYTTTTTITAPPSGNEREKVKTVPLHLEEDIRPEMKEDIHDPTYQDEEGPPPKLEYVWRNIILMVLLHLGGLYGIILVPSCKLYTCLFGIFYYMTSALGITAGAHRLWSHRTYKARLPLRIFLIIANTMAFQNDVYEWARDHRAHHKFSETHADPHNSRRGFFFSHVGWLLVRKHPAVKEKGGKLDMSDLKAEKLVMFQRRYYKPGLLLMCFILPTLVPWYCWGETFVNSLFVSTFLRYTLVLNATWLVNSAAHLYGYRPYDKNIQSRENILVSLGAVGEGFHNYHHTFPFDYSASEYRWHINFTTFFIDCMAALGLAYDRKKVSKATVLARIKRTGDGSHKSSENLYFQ

For assay [3], the target named is B2.
For assay [4], the target named is T2, full-length b5R released from the linker-cleaved cyt b5-b5R fusion (mouse, UniProt Q9DCN2 1-301).
T2 sequence: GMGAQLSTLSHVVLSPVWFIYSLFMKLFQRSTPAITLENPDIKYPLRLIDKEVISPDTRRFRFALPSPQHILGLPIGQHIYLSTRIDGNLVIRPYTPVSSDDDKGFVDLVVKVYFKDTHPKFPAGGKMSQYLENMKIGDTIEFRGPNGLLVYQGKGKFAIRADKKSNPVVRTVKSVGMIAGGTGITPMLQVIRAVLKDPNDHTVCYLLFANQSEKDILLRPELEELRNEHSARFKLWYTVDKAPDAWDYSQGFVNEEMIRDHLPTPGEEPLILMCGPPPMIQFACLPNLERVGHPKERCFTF

In assay [5] the target is T2, full-length b5R released from the …. The source holds these as a separate data set.

In the case of “full-length cyt b5 M126A released from the linker-cleaved SCD1-cyt b5 fusion (from UniProt P56395 1-134) (natural protein)”, in assay [1], the percent of cyt b5 dissociated from the complex was 50%.

B1: full-length cyt b5 released from the linker-cleaved SCD1-cyt b5-b5R fusion (natural protein, mouse)
chain: GMAGQSDKDVKYYTLEEIQKHKDSKSTWVILHHKVYDLTKFLEEHPGGEEVLREQAGGDATENFEDVGHSTDARELSKTYIIGELHPDDRSKIAKPSDTLITTVESNSSWWTNWVIPAISALAVALMYRLYMAEDENLYFQ
As for B1, the binding result in assay [2] and in assay [3] was “binds” each time. Turning to B2, the binding result in assay [2] is “binds”.

B3: full-length cyt b5 L121 Trp mutant released from the linker-cleaved cyt b5-b5R fusion (natural protein, mouse)
chain: MAGQSDKDVKYYTLEEIQKHKDSKSTWVILHHKVYDLTKFLEEHPGGEEVLREQAGGDATENFEDVGHSTDARELSKTYIIGELHPDDRSKIAKPSDTLITTVESNSSWWTNWVIPAISAWAVALMYRLYMAEDENLYFQ
For the molecule B3, the binding result in assay [4] is listed as “binds”.

B4: full-length cyt b5 A124 Trp mutant released from the linker-cleaved cyt b5-b5R fusion (natural protein, mouse)
chain: MAGQSDKDVKYYTLEEIQKHKDSKSTWVILHHKVYDLTKFLEEHPGGEEVLREQAGGDATENFEDVGHSTDARELSKTYIIGELHPDDRSKIAKPSDTLITTVESNSSWWTNWVIPAISALAVWLMYRLYMAEDENLYFQ
Turning to B4, the binding result in assay [4] was “binds”.

B5: full-length cyt b5 V123 Trp mutant released from the linker-cleaved cyt b5-b5R fusion (natural protein, mouse)
chain: MAGQSDKDVKYYTLEEIQKHKDSKSTWVILHHKVYDLTKFLEEHPGGEEVLREQAGGDATENFEDVGHSTDARELSKTYIIGELHPDDRSKIAKPSDTLITTVESNSSWWTNWVIPAISALAWALMYRLYMAEDENLYFQ
Consider B5, for which the binding result in assay [4] is recorded as “binds”.

B6: full-length cyt b5 released from the linker-cleaved cyt b5-b5R fusion (natural protein, mouse)
chain: MAGQSDKDVKYYTLEEIQKHKDSKSTWVILHHKVYDLTKFLEEHPGGEEVLREQAGGDATENFEDVGHSTDARELSKTYIIGELHPDDRSKIAKPSDTLITTVESNSSWWTNWVIPAISALAVALMYRLYMAEDENLYFQ
For B6, the binding result in assay [5] is given as “binds”.
